Assay [1] concerns the target T1, Recombinant Human IL-6 sR (human, UniProt P08887 20-358, limits assumed).
T1 construct: domain: IL-6 sR; soluble receptor; also called IL-6R
T1 sequence (looked up): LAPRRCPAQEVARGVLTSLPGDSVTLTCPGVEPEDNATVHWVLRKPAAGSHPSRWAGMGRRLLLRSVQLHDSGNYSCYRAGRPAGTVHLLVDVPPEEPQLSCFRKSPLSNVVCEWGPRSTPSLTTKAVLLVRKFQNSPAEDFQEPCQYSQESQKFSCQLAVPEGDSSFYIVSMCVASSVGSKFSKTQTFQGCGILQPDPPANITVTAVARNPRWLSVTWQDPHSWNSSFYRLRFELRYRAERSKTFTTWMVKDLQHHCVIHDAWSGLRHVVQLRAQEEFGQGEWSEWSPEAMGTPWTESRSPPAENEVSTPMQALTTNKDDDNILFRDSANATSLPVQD
Briefly: Biacore SPR. As for the experimental part:
(§1) The BIACORE assay (Biacore, Inc, Piscataway, N.J.) determines the affinity of antibodies or DVD-Ig with kinetic measurements of on-rate and off-rate constants. Binding of antibodies or DVD-Ig to a target antigen (for example, a purified recombinant target antigen) is determined by surface plasmon resonance-based measurements with a BiacoreR 1000 or 3000 instrument (Biacore® AB, Uppsala, Sweden) using running HBS-EP (10 mM HEPES [pH 7.4], 150 mM NaCl, 3 mM EDTA, and 0.005% surfactant P20) at 25° C. All chemicals are obtained from Biacore® AB (Uppsala, Sweden) or otherwise from a different source as described in the text. For example, approximately 5000 RU of goat anti-mouse IgG, (Fcγ), fragment specific polyclonal antibody (Pierce Biotechnology Inc, Rockford, Ill.) diluted in 10 mM sodium acetate (pH 4.5) is directly immobilized across a CM5 research grade biosensor chip using a standard amine coupling kit according to manufacturer's instructions and procedures at 25 μg/ml. Unreacted moieties on the biosensor surface are blocked with ethanolamine. Modified carboxymethyl dextran surface in flowcell 2 and 4 is used as a reaction surface. Unmodified carboxymethyl dextran without goat anti-mouse IgG in flow cell 1 and 3 is used as the reference surface. For kinetic analysis, rate equations derived from the 1:1 Langmuir binding model are fitted simultaneously to association and dissociation phases of all eight injections (using global fit analysis) with the use of Biaevaluation 4.0.1 software. Purified antibodies or DVD-Ig are diluted in HEPES-buffered saline for capture across goat anti-mouse IgG specific reaction surfaces. Antibodies or DVD-Ig to be captured as a ligand (25 μg/ml) are injected over reaction matrices at a flow rate of 5 μl/min. The association and dissociation rate constants, kₒₙ (M⁻¹s⁻¹) and koff (s⁻¹) are determined under a continuous flow rate of 25 μl/min. Rate constants are derived by making kinetic binding measurements at different antigen concentrations ranging from […]. The equilibrium dissociation constant (M) of the reaction between antibodies or DVD-Igs and the target antigen is then calculated from the kinetic rate constants by the following formula: KD=koff/kₒₙ. Binding is recorded as a function of time and kinetic rate constants are calculated.
For orientation: SPR reads the build-up and loss of mass on a sensor chip optically.

Assay [2] has as its target T1, Recombinant Human IL-6 sR. Nature of the assay: direct bind ELISA. As for the experimental part:
(§2) Enzyme Linked Immunosorbent Assays to screen for antibodies that bind a desired target antigen were performed as follows. High bind ELISA plates (Corning Costar # 3369, Acton, Mass.) were coated with 100 μL/well of 10 μg/ml of desired target antigen (R&D Systems, Minneapolis, Minn.) or desired target antigen extra-cellular domain/FC fusion protein (R&D Systems, Minneapolis, Minn.) or monoclonal mouse anti-polyhistidine antibody (R&D Systems # MAB050, Minneapolis, Minn.) in phosphate buffered saline (10×PBS, Abbott Bioresearch Center, Media Prep# MPS-073, Worcester, Mass.) overnight at 4° C. Plates were washed four times with PBS containing 0.02% Tween 20. Plates were blocked by the addition of 300 μL/well blocking solution (non-fat dry milk powder, various retail suppliers, diluted to 2% in PBS) for ½ hour at room temperature. Plates were washed four times after blocking with PBS containing 0.02% Tween 20.
(§3) Plates were washed 4 times with PBS containing 0.02% Tween 20.
(§4) One hundred microliters of enhanced TMB solution (Neogen Corp. #308177, K Blue, Lexington, Ky.) was added to each well and incubated for 10 minutes at room temperature. The reaction was stopped by the addition of 50 μL 1N sulphuric acid. Plates were read spectrophotometrically at a wavelength of 450 nm.

Assay [3] concerns the target T2, IL-6R on cells (UniProt P08887 20-468, limits assumed).
T2 sequence (looked up): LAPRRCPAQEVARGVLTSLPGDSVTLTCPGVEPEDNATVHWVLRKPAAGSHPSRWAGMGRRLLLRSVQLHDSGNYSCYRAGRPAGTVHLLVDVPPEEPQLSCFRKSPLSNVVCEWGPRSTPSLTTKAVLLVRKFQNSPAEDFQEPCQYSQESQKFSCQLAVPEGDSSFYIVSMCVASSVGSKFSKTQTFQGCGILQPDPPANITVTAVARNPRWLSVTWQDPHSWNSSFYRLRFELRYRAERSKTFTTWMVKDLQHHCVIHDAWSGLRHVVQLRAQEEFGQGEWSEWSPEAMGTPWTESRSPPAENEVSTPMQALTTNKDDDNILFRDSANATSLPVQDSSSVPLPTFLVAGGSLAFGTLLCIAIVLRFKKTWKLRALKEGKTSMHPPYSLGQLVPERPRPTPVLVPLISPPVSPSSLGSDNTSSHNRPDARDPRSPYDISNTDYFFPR
Nature of the assay: cell-based or functional assay.

Assay [4] addresses T2, IL-6R on cells. Nature of the assay: flow cytometry on cells, 2 µg/mL. Here is the method:
(§5) Stable cell lines overexpressing a cell-surface antigen of interest or human tumor cell lines were harvested from tissue culture flasks and resuspended in phosphate buffered saline (PBS) containing 5% fetal bovine serum (PBS/FBS). Prior to staining, human tumor cells were incubated on ice with (100 μl) human IgG at 5 μg/ml in PBS/FCS. 1−5×10⁵ cells were incubated with antibody or DVD-Ig (2 μg/mL) in PBS/FBS for 30-60 minutes on ice. […] After 30 minutes incubation on ice, cells were washed twice and resuspended in PBS/FBS. Fluorescence was measured using a Becton Dickinson FACSCalibur (Becton Dickinson, San Jose, Calif.).
(§6) The geometric mean is the n root of the multiplication product of n fluorescent signals (a1×a2×a3 . . . an). With log-transformed data the geometric mean is used to normalize the weighting of the data distribution.
On the technique in general: Flow cytometry measures light scatter and fluorescence of single cells or particles in a stream.

For assay [5], the target named is T3, Recombinant Human β-NGF (human, UniProt P01138 122-241). Nature of the assay: Biacore SPR. Here is the method:
as §1

The target in assay [6] is T3, Recombinant Human β-NGF. Briefly: direct bind ELISA. Here is the method:
as §2, §3, §4

Assay [7] addresses T4, Recombinant Human IL-4 (human, UniProt P05112 25-153).
T4 sequence (looked up): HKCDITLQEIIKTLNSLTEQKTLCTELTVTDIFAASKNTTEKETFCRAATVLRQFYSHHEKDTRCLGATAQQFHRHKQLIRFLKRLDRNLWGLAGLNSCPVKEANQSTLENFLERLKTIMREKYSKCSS
Briefly: Biacore SPR. Here is the method:
as §1

In assay [8] the target is T4, Recombinant Human IL-4. Briefly: direct bind ELISA. As for the experimental part:
as §2, §3, §4
On the technique in general: ELISA stands for enzyme-linked immunosorbent assay.

Assay [9] deals with T4, Recombinant Human IL-4. Nature of the assay: cell-based or functional assay.
The target of assay [10] is T5, Recombinant Human TRANCE/RANKL/TNFSF 11 (human, UniProt O14788 69-317).
T5 construct: extracellular domain
T5 sequence (looked up): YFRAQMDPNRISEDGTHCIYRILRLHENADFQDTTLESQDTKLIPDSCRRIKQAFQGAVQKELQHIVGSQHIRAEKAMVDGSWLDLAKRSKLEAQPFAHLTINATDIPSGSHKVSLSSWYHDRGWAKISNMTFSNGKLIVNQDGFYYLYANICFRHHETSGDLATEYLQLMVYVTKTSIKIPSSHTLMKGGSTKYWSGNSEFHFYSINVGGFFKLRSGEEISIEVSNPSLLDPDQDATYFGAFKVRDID
Briefly: direct bind ELISA. Here is the method:
as §2, §3, §4

The target in assay [11] is T6, CD20 on cells (UniProt P11836 1-297, limits assumed).
T6 construct: whole, on cells
T6 sequence (looked up): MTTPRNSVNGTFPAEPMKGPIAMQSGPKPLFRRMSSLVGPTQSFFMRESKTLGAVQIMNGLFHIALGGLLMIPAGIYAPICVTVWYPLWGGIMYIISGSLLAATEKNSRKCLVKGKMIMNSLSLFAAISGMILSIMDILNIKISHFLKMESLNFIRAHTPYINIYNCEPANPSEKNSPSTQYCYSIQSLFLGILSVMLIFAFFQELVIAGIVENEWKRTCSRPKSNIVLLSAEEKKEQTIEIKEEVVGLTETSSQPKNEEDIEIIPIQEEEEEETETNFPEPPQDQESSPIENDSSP
Nature of the assay: flow cytometry on cells, 2 µg/mL. Here is the method:
as §5, §6

Consider six molecules from patent US20090311253A1 (AbbVie / Abbott, published 2009).

Residue numbers refer to the chain shown, from its start. Several values for one entry are separate records, joined by “and”; a condition that tells them apart may be missing. Equal values may be shown once.

T3 sequence (P01138 122-241 limits assumed): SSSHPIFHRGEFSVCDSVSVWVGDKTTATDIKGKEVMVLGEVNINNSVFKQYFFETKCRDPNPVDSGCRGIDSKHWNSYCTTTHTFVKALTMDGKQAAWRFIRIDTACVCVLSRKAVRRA

B1: AB054 (antibody, human IgG1, kappa, V domains shown)
VH: EVQLQESGPGLVRPSQTLSLTCTVSGYSITSDHAWSWVRQPPGRGLEWIGYISYSGITTYNPSLKSRVTMLRDTSKNQFSLRLSSVTAADTAVYYCARSLARTTAMDYWGQGSLVTVSS
VL: DIQMTQSPSSLSASVGDRVTITCRASQDISSYLNWYQQKPGKAPKLLIYYTSRLHSGVPSRFSGSGSGTDFTFTISSLQPEDIATYYCQQGNTLPYTFGQGTKVEIKR
notes: vectors V1 and V2; also called anti-IL-6R parent antibody
In general, Kd refers to the equilibrium constant for the complex coming apart. In general, koff refers to a measure of how fast the partners let go of each other. In general, kon refers to the rate constant with which the complex forms. As a reminder, the EC50 is the concentration at which the effect is half-maximal. Take B1: in [1], the equilibrium dissociation constant (Kd) was found to be 0.614 nM, the koff was found to be 0.000206 s⁻¹ and the kon came out at 336000 M⁻¹ s⁻¹. Also, the EC50 in [2] is 1.42 nM and 1.24 nM and 1.31 nM. Further, in [3], the “IL-6 induced pSTAT3 in TF-1 cells, EC50” value is 0.07 nM. Also, in assay [4], the “FACS Geometric Mean” value came out at 5.94.

B2: AB020 (antibody, human IgG1, kappa, V domains shown)
VH: QVQLQESGPGLVKPSETLSLTCTVSGFSLIGYDLNWIRQPPGKGLEWIGIIWGDGTTDYNSAVKSRVTISKDTSKNQFSLKLSSVTAADTAVYYCARGGYWYATSYYFDYWGQGTLVTVSS
VL: B1 VL with D28S, S31N, Y32N, L54F, G91E, N92H, V104L
notes: vectors V1 and V2; also called anti-NGF parent antibody
Take B2: in [5], the Kd was less than 0.000926 nM, the koff is less than 1e-06 s⁻¹ and the kon came out at 1.08e+06 M⁻¹ s⁻¹. Besides, the concentration for a half-maximal effect (EC50) in [6] was found to be 9 nM.

B3: AB027 (antibody, human IgG1, kappa, V domains shown)
VH: QVTLRESGPALVKPTQTLTLTCTFSGFSLSTSGMGVSWIRQPPGKGLEWLAHIYWDDDKRYNPSLKSRLTISKDTSRNQVVLTMTNMDPVDTATYYCARRETVFYWYFDVWGRGTPVTVSS
VL: DIVLTQSPSSLSASVGDRVTITCKASQSVDYDGDSYMNWYQQKPGKAPKLLIYAASNLESGIPSRFSGSGSGTDFTFTISSLQPEDIATYYCQQSNEDPPTFGQGTKVEIKR
notes: vectors V1 and V2; also called anti-IL-4 parent antibody
In the case of B3, in assay [7], the Kd was 0.0219 nM, the koff stood at 0.00013 s⁻¹ and the kon is 5.92e+06 M⁻¹ s⁻¹. Also, the EC50 in assay [8] is 5.81 nM. The “IL-4 Neutralization Assay EC50 (A549 cells, hTARC)” value in [9] came to 0.21 nM.

B4: DVD165 (bispecific antibody, human IgG1, kappa)
heavy: not shown
light: QIVLSQSPAILSPSPGEKVTMTCRASSSVSYIHWFQQKPGSSPKPWIYATSNLASGVPVRFSGSGSGTSYSLTISRVEAEDAATYYCQQWTSNPPTFGGGTKLEIKRTVAAPEIVLTQSPGTLSLSPGERATLSCRASQSVRGRYLAWYQQKPGQAPRLLIYGASSRATGIPDRFSGSGSGTDFTLTISRLEPEDFAVFYCQQYGSSPRTFGQGTKVEIKRTVAAPSVFIFPPSDEQLKSGTASVVCLLNNFYPREAKVQWKVDNALQSGNSQESVTEQDSKDSTYSLSSTLTLSKADYEKHKVYACEVTHQGLSSPVTKSFNRGEC
notes: vectors V1, V2; also called CD-20 and RANKL DVD-Ig
For the molecule B4, the EC50 in assay [10] was 0.32 nM. The “FACS Geometric Mean” value in assay [11] came out at 1890.

B5: AB001 (antibody, human IgG1, kappa, V domains shown)
VH: QVQLQQPGAELVKPGASVKMSCKASGYTFTSYNMHWVKQTPGRGLEWIGAIYPGNGDTSYNQKFKGKATLTADKSSSTAYMQLSSLTSEDSAVYYCARSTYYGGDWYFNVWGAGTTVTVSA
VL: QIVLSQSPAILSPSPGEKVTMTCRASSSVSYIHWFQQKPGSSPKPWIYATSNLASGVPVRFSGSGSGTSYSLTISRVEAEDAATYYCQQWTSNPPTFGGGTKLEIKR
notes: vectors V1 (wild type hIgG1 constant) and V2 (kappa); also called anti-CD20 parent antibody
As to B5, in assay [11], the “FACS Geometric Mean” value was 1350.

B6: DVD129 (bispecific antibody, human IgG1, kappa)
heavy: not shown
light: DIQMTQSPSSLSASVGDRVTITCRASQDISSYLNWYQQKPGKAPKLLIYYTSRLHSGVPSRFSGSGSGTDFTFTISSLQPEDIATYYCQQGNTLPYTFGQGTKVEIKRTVAAPEIVLTQSPGTLSLSPGERATLSCRASQSVRGRYLAWYQQKPGQAPRLLIYGASSRATGIPDRFSGSGSGTDFTLTISRLEPEDFAVFYCQQYGSSPRTFGQGTKVEIKRTVAAPSVFIFPPSDEQLKSGTASVVCLLNNFYPREAKVQWKVDNALQSGNSQESVTEQDSKDSTYSLSSTLTLSKADYEKHKVYACEVTHQGLSSPVTKSFNRGEC
notes: vectors V1, V2; also called IL-6R and RANKL DVD-Ig
Take B6: the EC50 in assay [2] was found to be 0.96 nM; in assay [10], 0.53 nM. In addition, the “IL-6 induced pSTAT3 in TF-1 cells, EC50” value in assay [3] turned out to be 0.16 nM. The “FACS Geometric Mean” value in [4] stood at 8.43.
